Experimental data as given in patent publication US20230132049A1 (Genmab, published 2023).
Substitutions are numbered along the chain they refer to.

T1: human CD30 (human, UniProt P28908 19-595)
T1 sequence: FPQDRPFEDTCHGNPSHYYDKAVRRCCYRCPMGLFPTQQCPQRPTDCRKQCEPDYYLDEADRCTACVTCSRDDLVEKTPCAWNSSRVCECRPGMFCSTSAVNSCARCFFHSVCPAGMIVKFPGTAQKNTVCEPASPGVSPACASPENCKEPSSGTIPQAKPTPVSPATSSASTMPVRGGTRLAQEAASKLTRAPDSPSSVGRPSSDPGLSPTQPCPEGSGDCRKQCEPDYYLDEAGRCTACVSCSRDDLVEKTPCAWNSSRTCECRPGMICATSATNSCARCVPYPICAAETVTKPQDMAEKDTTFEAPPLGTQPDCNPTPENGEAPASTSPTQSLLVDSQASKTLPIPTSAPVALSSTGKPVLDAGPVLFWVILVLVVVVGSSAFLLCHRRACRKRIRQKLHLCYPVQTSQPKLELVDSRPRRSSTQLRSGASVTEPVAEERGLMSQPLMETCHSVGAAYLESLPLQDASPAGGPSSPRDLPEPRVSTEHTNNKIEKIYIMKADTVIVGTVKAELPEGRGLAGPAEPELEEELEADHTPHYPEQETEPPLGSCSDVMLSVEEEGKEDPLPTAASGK

T2: rhesus monkey (Macaca mulatta) CD30 (rhesus monkey, UniProt P28908 19-595 (human entry))
T2 construct: Full-length construct expressed in Expi293F cells; also called mmCD30
T2 chain: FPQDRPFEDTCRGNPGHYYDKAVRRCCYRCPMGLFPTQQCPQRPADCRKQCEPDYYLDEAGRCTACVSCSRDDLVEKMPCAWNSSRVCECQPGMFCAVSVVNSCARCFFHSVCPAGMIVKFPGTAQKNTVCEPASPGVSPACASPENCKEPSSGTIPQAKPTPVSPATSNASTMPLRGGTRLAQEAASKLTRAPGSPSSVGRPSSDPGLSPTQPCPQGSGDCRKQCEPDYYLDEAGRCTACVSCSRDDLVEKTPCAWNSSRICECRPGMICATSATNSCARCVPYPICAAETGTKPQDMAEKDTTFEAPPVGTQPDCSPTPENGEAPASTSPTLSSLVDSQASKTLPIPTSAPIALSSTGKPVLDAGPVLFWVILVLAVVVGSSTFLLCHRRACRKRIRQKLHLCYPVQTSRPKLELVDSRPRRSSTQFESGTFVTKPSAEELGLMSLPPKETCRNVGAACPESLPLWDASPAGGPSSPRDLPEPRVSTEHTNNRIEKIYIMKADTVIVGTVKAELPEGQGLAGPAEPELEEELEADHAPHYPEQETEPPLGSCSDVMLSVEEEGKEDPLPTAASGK

B1: bsG1-huCD3-FEAL×CD30-MDX060-FEAR (bispecific antibody, human IgG1, kappa, lambda)
heavy 1: not shown
light 1: not shown
heavy 2: QVQLQQWGAGLLKPSETLSLTCAVYGGSFSAYYWSWIRQPPGKGLEWIGDINHGGGTNYNPSLKSRVTISVDTSKNQFSLKLNSVTAADTAVYYCASLTAYWGQGSLVTVSSASTKGPSVFPLAPSSKSTSGGTAALGCLVKDYFPEPVTVSWNSGALTSGVHTFPAVLQSSGLYSLSSVVTVPSSSLGTQTYICNVNHKPSNTKVDKRVEPKSCDKTHTCPPCPAPEFEGGPSVFLFPPKPKDTLMISRTPEVTCVVVAVSHEDPEVKFNWYVDGVEVHNAKTKPREEQYNSTYRVVSVLTVLHQDWLNGKEYKCKVSNKALPAPIEKTISKAKGQPREPQVYTLPPSREEMTKNQVSLTCLVKGFYPSDIAVEWESNGQPENNYKTTPPVLDSDGSFFLYSRLTVDKSRWQQGNVFSCSVMHEALHNHYTQKSLSLSPG
light 2: DIQMTQSPTSLSASVGDRVTITCRASQGISSWLTWYQQKPEKAPKSLIYAASSLQSGVPSRFSGSGSGTDFTLTISSLQPEDFATYYCQQYDSYPITFGQGTRLEIKRTVAAPSVFIFPPSDEQLKSGTASVVCLLNNFYPREAKVQWKVDNALQSGNSQESVTEQDSKDSTYSLSSTLTLSKADYEKHKVYACEVTHQGLSSPVTKSFNRGEC
notes: also called bsG1-huCD3xCD30-MDX060
B2: bsG1-huCD3-FEAL×CD30-HRS-3-FEAR (bispecific antibody, human IgG1, kappa, lambda)
heavy 1: not shown
light 1: not shown
heavy 2: QVQLQQSGAELARPGASVKMSCKASGYTFTTYTIHWVRQRPGHDLEWIGYINPSSGYSDYNQNFKGKTTLTADKSSNTAYMQLNSLTSEDSAVYYCARRADYGNYEYTWFAYWGQGTTVTVSSASTKGPSVFPLAPSSKSTSGGTAALGCLVKDYFPEPVTVSWNSGALTSGVHTFPAVLQSSGLYSLSSVVTVPSSSLGTQTYICNVNHKPSNTKVDKRVEPKSCDKTHTCPPCPAPEFEGGPSVFLFPPKPKDTLMISRTPEVTCVVVAVSHEDPEVKFNWYVDGVEVHNAKTKPREEQYNSTYRVVSVLTVLHQDWLNGKEYKCKVSNKALPAPIEKTISKAKGQPREPQVYTLPPSREEMTKNQVSLTCLVKGFYPSDIAVEWESNGQPENNYKTTPPVLDSDGSFFLYSRLTVDKSRWQQGNVFSCSVMHEALHNHYTQKSLSLSPG
light 2: DIVMTQSPKFMSTSVGDRVTVTCKASQNVGTNVAWFQQKPGQSPKVLIYSASYRYSGVPDRFTGSGSGTDFTLTISNVQSEDLAEYFCQQYHTYPLTFGGGTKLEINRTVAAPSVFIFPPSDEQLKSGTASVVCLLNNFYPREAKVQWKVDNALQSGNSQESVTEQDSKDSTYSLSSTLTLSKADYEKHKVYACEVTHQGLSSPVTKSFNRGEC
B3: bsG1-huCD3-FEAL×CD30-T105-FEAR (bispecific antibody, human IgG1, kappa, lambda)
heavy 1: not shown
light 1: not shown
heavy 2: not shown
light 2: B2 light 2 with P8Q, T20S, G30N, F36Y, K45E, V46A, H92N, T93S, G100S, N107K
notes: Bispecific IgG1 by Fab-arm exchange of the two parental antibodies; also called bsIgG1-huCD3-FEAL×CD30-T105-FEAR
B4: bsG1-huCD3-FEAL×CD30-T215-FEAR (bispecific antibody, human IgG1, kappa, lambda)
heavy 1: not shown
light 1: not shown
heavy 2: not shown
light 2: DIVMTQSQKFMSTSVGDRVSVTCKASQNVFTNVAWYQQKLGQSPKPLIYSASYRYSGVPDRFTGSGSGTDFTLTISDVQSEDLAEYFCQQYNSYPVTFGAGTKLELKRTVAAPSVFIFPPSDEQLKSGTASVVCLLNNFYPREAKVQWKVDNALQSGNSQESVTEQDSKDSTYSLSSTLTLSKADYEKHKVYACEVTHQGLSSPVTKSFNRGEC
notes: Bispecific IgG1 by Fab-arm exchange of the two parental antibodies; also called bsIgG1-huCD3-FEAL×CD30-T215-FEAR
B5: bsG1-huCD3-FEAL×CD30-T408-FEAR (bispecific antibody, human IgG1, kappa, lambda)
heavy 1: not shown
light 1: not shown
heavy 2: QVQLQQPGAELVRPGASVKLSCKASGYTFTSYWINWVKQRPGQGLEWIGNIYPSDSYSNYNQKFKDKATLTVDKSSSTAYMQLSSPTSEDSAVYYCTLGSYWGQGTLVTVSAASTKGPSVFPLAPSSKSTSGGTAALGCLVKDYFPEPVTVSWNSGALTSGVHTFPAVLQSSGLYSLSSVVTVPSSSLGTQTYICNVNHKPSNTKVDKRVEPKSCDKTHTCPPCPAPEFEGGPSVFLFPPKPKDTLMISRTPEVTCVVVAVSHEDPEVKFNWYVDGVEVHNAKTKPREEQYNSTYRVVSVLTVLHQDWLNGKEYKCKVSNKALPAPIEKTISKAKGQPREPQVYTLPPSREEMTKNQVSLTCLVKGFYPSDIAVEWESNGQPENNYKTTPPVLDSDGSFFLYSRLTVDKSRWQQGNVFSCSVMHEALHNHYTQKSLSLSPG
light 2: DVVMTQTPLTLSVTIGQPASISCKSSQSLSDSDGKTYLNWLLQRPGQSPKRLIYLVSKLDSGVPDRFTGSGSGTDFTLKISRVEAEDLGVYYCWQGAHFPRTFGGGTKLEIKRTVAAPSVFIFPPSDEQLKSGTASVVCLLNNFYPREAKVQWKVDNALQSGNSQESVTEQDSKDSTYSLSSTLTLSKADYEKHKVYACEVTHQGLSSPVTKSFNRGEC
notes: Bispecific IgG1 by Fab-arm exchange of the two parental antibodies; also called bsIgG1-huCD3-FEAL×CD30-T408-FEAR; BisIgG1-huCD3-FEAL×CD30-T408-FEAR
B6: bsG1-huCD3-FEAL×CD30-hAC10-FEAR (bispecific antibody, human IgG1, kappa, lambda)
heavy 1: not shown
light 1: not shown
heavy 2: QVQLVQSGAEVKKPGASVKVSCKASGYTFTDYYITWVRQAPGQGLEWMGWIYPGSGNTKYNEKFKGRVTMTRDTSISTAYMELSRLRSDDTAVYYCANYGNYWFAYWGQGTLVTVSSASTKGPSVFPLAPSSKSTSGGTAALGCLVKDYFPEPVTVSWNSGALTSGVHTFPAVLQSSGLYSLSSVVTVPSSSLGTQTYICNVNHKPSNTKVDKRVEPKSCDKTHTCPPCPAPEFEGGPSVFLFPPKPKDTLMISRTPEVTCVVVAVSHEDPEVKFNWYVDGVEVHNAKTKPREEQYNSTYRVVSVLTVLHQDWLNGKEYKCKVSNKALPAPIEKTISKAKGQPREPQVYTLPPSREEMTKNQVSLTCLVKGFYPSDIAVEWESNGQPENNYKTTPPVLDSDGSFFLYSRLTVDKSRWQQGNVFSCSVMHEALHNHYTQKSLSLSPG
light 2: not shown
notes: Bispecific IgG1 by Fab-arm exchange of the two parental antibodies
B7: IgG1-CD30-T408-FEAR (antibody, V domains shown)
VH: QVQLQQPGAELVRPGASVKLSCKASGYTFTSYWINWVKQRPGQGLEWIGNIYPSDSYSNYNQKFKDKATLTVDKSSSTAYMQLSSPTSEDSAVYYCTLGSYWGQGTLVTVSA
VL: not shown
notes: Monospecific, bivalent parental antibody
B8: IgG1-CD30-T215-FEAR (antibody, V domains shown)
VH: QVTLKESGPGILQPSQTLSLTCSFSGFSLSVSGMGVSWIRQPSGKGLEWLAHIHWDDDRRSNPSLRSRLTISKDTSNNQVFLKITSVDTADTATYYCARRPDLYGNYFFFDFWGQGTTLTVSS
VL: DIVMTQSQKFMSTSVGDRVSVTCKASQNVFTNVAWYQQKLGQSPKPLIYSASYRYSGVPDRFTGSGSGTDFTLTISDVQSEDLAEYFCQQYNSYPVTFGAGTKLELKR
notes: as for B7

target: T1, human CD30; assay: cell-based or functional assay

Row | Binder | cytotoxicity IC50 (µg/mL) average, Karpas-299 cells [µg/mL] | cytotoxicity maximum lysis (%) average, Karpas-299 cells [%]
1 | B1 | 0.033 | 53.7
2 | B2 | 0.068 | 47.5
3 | B3 | 0.042 | 52.6
4 | B4 | 0.077 | 42.8
5 | B5 | 0.226 | 41.3
6 | B6 | 0.032 | 37.8

target: T1, human CD30; assay: flow cytometry on SU-DHL-1 cells
Description: Binding of CD3×CD30 bispecific antibodies to two CD30-expressing human tumor cell lines SU-DHL-1 (ALCL; ATCC, cat. no. ACC 356) and HDLM-2 (HL; ATCC, cat. no. CRL-2965) was analyzed by flow cytometry.
Cells (3×10⁴ cells/well) were incubated in polystyrene 96-well round-bottom plates (Greiner bio-one, cat. no. 650180) with serial dilutions of antibodies (range 0.0046 to 10 μg/mL in 3-fold dilution steps) in 50 μL staining buffer at 4° C. for 30 min. After washing twice in staining buffer, cells were incubated with 50 μL secondary antibody at 4° C. for 30 min. […] Next, cells were washed twice in staining buffer, resuspended in 100 μL staining buffer supplemented with TO-PRO-3 iodide (Thermo Fisher Scientific; cat. no. T3605; 1:8000 dilution) and analyzed on a FACSCelesta flow cytometer (BD Biosciences, USA). Live cells were gated based on FSC/SSC and absence of TOPRO-3 staining. Binding curves were analyzed by non-linear regression of log-transformed data (sigmoidal dose-response with variable slope, four parameters) using GraphPad Prism V7.02 software (GraphPad Software, San Diego, Calif., USA).

Row | Binder | EC50 (read off the curve) [µg/mL]
7 | B7 | ~0.7

Target: T2, rhesus monkey (Macaca mulatta) CD30
Assay: flow cytometry on Expi293F cells transfected with rhesus monkey CD30
Description: (§1) Cells (3×10⁴ cells/well) were incubated in polystyrene 96-well round-bottom plates (Thermo Scientific, cat. no. 163320) with serial dilutions of antibodies (ranging from 0.0002 to 50 μg/mL in 4-fold dilution steps) in 50 μL staining buffer at 4° C. for 30 min. Experiments were performed in technical duplicate. After washing twice in staining buffer, cells were incubated in 50 μL secondary antibody at 4° C. for 30 min. […] Cells were washed twice in staining buffer, resuspended in 30 μL staining buffer containing 0.4% EDTA and the ToPro-3 viability marker (Invitrogen, cat. no. T3605) diluted 1:10,000. Cells were analyzed on an iQue Screener (Intellicyt Corporation, USA). Binding curves were analyzed using non-linear regression (sigmoidal dose-response with variable slope) using GraphPad Prism V9.0.0 software (GraphPad Software, San Diego, Calif., USA).

Row | Binder | binding result
8 | B4 | binds
9 | B5 | binds
10 | B8 | binds

Target: T2, rhesus monkey (Macaca mulatta) CD30
Assay: as above
Remark: another data set of the same source

Row | Binder | binding result
11 | B6 | binds

target: T1, human CD30; assay: flow cytometry on Expi293F cells transfected with human CD30
Description: as §1

Row | Binder | EC50 (read off the curve) [µg/mL]
12 | B1 | ~0.1
13 | B3 | ~0.2
14 | B6 | ~0.06
